Reference: paper PMC11143374, “Conformations of Bcs1L undergoing ATP hydrolysis suggest a concerted translocation mechanism for folded iron-sulfur protein substrate” (Nature Communications, 2024)

T1: mouse Bcs1L (mBcs1L), wild type, hexahistidine-tagged (mouse, UniProt Q9CZP5 1-418)
T1 sequence (looked up): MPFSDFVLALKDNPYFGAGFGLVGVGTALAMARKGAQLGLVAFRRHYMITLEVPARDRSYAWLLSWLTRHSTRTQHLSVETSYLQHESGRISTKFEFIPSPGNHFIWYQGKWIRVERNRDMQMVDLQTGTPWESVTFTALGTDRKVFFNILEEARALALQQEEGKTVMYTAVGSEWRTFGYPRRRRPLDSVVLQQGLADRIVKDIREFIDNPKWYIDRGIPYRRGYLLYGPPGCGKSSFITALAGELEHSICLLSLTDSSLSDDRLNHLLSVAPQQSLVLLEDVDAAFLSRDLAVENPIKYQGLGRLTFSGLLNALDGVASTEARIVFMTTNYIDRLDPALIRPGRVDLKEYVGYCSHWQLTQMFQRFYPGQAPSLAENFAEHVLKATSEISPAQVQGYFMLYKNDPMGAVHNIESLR


Tests used:
[1] = biological target: AAA domain of mBcs1L (ΔNmBcs1L, residues 151-420) (mouse) (UniProt Q9CZP5); assay: native gel or EMSA; BN-PAGE of ΔNmBcs1L with AMP-PNP or ATPγS
[2] = biological target: T1, mouse Bcs1L (mBcs1L), wild type, …; assay: cell-based or functional assay

Molecule	stoichiometry N [1]	ATPase activity of mBcs1L (malachite green, 37 °C, 15 min) at different ISP-ED:mBcs1L heptamer molar ratios; maximal stimulation at a ratio of 3-4, no further change at higher ratios [2] [% stimulation]
AAA domain of mBcs1L (ΔNmBcs1L, residues 151-420) (from UniProt Q9CZP5 151-418) (domain or fragment)	7	–
extrinsic domain of the Rieske iron-sulfur protein (ISP-ED), bovine (domain or fragment, UniProt P13272 146-274, looked up) VLAMSKIEIKLSDIPEGKNMAFKWRGKPLFVRHRTKKEIDQEAAVEVSQLRDPQHDLERVKKPEWVILIGVCTHLGCVPIANAGDFGGYYCPCHGSHYDASGRIRKGPAPLNLEVPSYEFTSDDMVIVG	–	~50
